Biological target: T1, Rv1272c from Mycobacterium tuberculosis (Mycobacterium tuberculosis (Mtb) H37Rv, UniProt P9WQJ3 1-631)
T1 construct: also called subunit of Rv1273c/72c; not shown: Flag, C-terminal, kept
T1 sequence: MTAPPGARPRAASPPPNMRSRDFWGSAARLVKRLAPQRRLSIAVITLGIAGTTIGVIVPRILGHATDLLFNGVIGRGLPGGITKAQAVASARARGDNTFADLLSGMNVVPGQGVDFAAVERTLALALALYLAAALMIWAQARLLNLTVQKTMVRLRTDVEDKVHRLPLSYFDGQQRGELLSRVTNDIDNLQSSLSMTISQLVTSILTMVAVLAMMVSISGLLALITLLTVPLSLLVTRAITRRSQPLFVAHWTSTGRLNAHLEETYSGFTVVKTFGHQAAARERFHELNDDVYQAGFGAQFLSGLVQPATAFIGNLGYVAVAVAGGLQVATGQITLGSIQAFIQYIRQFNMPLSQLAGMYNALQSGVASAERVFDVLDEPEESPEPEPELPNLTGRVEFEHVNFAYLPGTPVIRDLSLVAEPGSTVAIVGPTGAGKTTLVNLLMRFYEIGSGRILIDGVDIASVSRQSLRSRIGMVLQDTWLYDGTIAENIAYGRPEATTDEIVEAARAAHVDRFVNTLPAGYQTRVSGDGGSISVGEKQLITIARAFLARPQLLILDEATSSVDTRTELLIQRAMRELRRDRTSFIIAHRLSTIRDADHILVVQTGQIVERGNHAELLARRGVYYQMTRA
Assay: SEC
Conditions: both partners purified

B1: Rv1273c from Mycobacterium tuberculosis (natural protein)
chain: MLLALLRQHIRPYRRLVAMLMMLQLVSTLASLYLPTVNAAIVDDGVAKGDTATIVRLGAVMLGVTGLQVLCAIGAVYLGSRTGAGFGRDLRSAMFEHIITFSERETARFGAPTLLTRSTNDVRQILFLVQMTATVLVTAPIMCVGGIIMAIHQEAALTWLLLVSVPILAVANYWIISHMLPLFRRMQSLIDGINRVMRDQLSGVRVVRAFTREGYERDKFAQANTALSNAALSAGNWQALMLPVTTLTINASSVALIWFGGLRIDSGQMQVGSLIAFLSYFAQILMAVLMATMTLAVLPRASVCAERITEVLSTPAALGNPDNPKFPTDGVTGVVRLAGATFTYPGADCPVLQDISLTARPGTTTAIVGSTGSGKSTLVSLICRLYDVTAGAVLVDGIDVREYHTERLWSAIGLVPQRSYLFSGTVADNLRYGGGPDQVVTEQEMWEALRVAAADGFVQTDGLQTRVAQGGVNFSGGQRQRLAIARAVIRRPAIYVFDDAFSALDVHTDAKVHASLRQVSGDATIIVVTQRISNAAQADQVIVVDNGKIVGTGTHETLLADCPTYAEFAASQSLSATVGGVG
notes: also called subunit of Rv1273c/72c
With B1 the “stoichiometry N” value was 1.

Source: publication PMC12038006 (Nature Communications, 2025)
